The source of these data is the DeepSol protein solubility set.

This data set in a line: soluble on expression in E. coli; label from the status in PepcDB or PDB records.
For “MTVIYQTTITRIGASAIDALSDQMLITFREGAPADLEEYCFIHCHGELKGALHPGLQFSLGQHRYPVTAVGSVAEDNLRELGHVTLRFDGLNEAEFPGTVHVAGPVPDDIAPGSVLKFESVKE”, the “soluble on expression in E. coli” value was “not soluble”.

With “MAHHHHHHMHPYLFICKEGNNNNGSTTNLKSGMSLSDRRHTPLGRNLSESTELSQSLSSRSGGSSPIPRPNLDDITRRLLEENEGMLFEINKLTRELTDERAKVSGLHETLAERSAELELMKEKLSDATVVATDDTGKPINYKRECDGLAADNNRLVKEYERVCTELEKRTEEIRREMGDQRDEAEGKTISVQVEQFNREITALVPTVEHIVNSLKRCVVTGGIAEERILENAQKELHTMRRITDTVRRMNAGDETCVKGLLTQIQKGEQLTAPGDVAVVIRWMVVRAFEAGLQSAEGNLRTLVDILNNSKGRYTSENATTGSGEVPASGISVRQMFRLLKM”, the “soluble on expression in E. coli” value is “not soluble”. The entry for “SELRPSGDSGSSDVDAEISDGFSPLDTSHRDVADEGSLLRRAEMYQDYMKQVPIPTNRGSLIPFTSWVGLSISMKQLYGQPLHYLTNVLLQRWDQSRFGTDSEEQRLDSIIHPTKAEATIWLVEEIHRLTPSHLHMALLWRSDPMYHSFIDPIFPEK” is “soluble”; for “MGSDKIHHHHHHMDINLYSDRLKLRNLLSRDWDFFLRLHLDKDVNQYIRSIEPESDIVAKFEQRKAVWLFESGDWLTLVIERIDNSQAVGLIGFRCDDAQLRRAEVGYLIAPEQQGLGFASESLLAVTDWGALQFSMHKYIGICAHENTASRKVLEKVGFVLEGTLKQNNCVDGKWSDDCYMGLLTAQRT” it is “not soluble”; for “QDVGQKSIFSITPEFDEVRSISNVGSNGDISSHGNTIYFTRHTLNSPQDIFSIDNHGDDLTQLTHINKDKLGDVKFADYQQFNFKGWNDETVHGYWLKPANFEAGKKYPIAFLVHGGPQGSFGNMFHYRWNAQLWAAQGYGVVMVDFHGSTGYGQEFTHSISRDWGGKPLEDLQKGLDFIVKEQPWLDGDNACALGASYGGYMMNWIAGNWPTRFKCLINHAGLYDMPSFYQSTEELWFPEYDMGGPSWGKENGSAKGKVSPDYTKFNPSAYVNNWQTPMLVIQGELDYRVPYAQSLGAFTTLQRKGIDSRLVMFPDEDHHIRKPDNLVVWYDEVFKWLEKYTK” it is “not soluble”. Then “MHHHHHHSSGVDLGTENLYFQSMADSEALPSLAGDPVAVEALLRAVFGVVVDEAIQKGTSVSQKVCEWKEPEELKQLLDLELRSQGESQKQILERCRAVIRYSVKTGHPRFFNQLFSGLDPHALAGRIITESLNTSQYTYEIAPVFVLMEEEVLRKLRALVGWSSGDGIFCPGGSISNMYAVNLARYQRYPDCKQRGLRTLPPLALFTSKECHYSIQKGAAFLGLGTDSVRVVKADERGKMVPEDLERQIGMAEAEGAVPFLVSATSGTTVLGAFDPLEAIADVCQRHGLWLHVDAAWGGSVLLSQTHRHLLDGIQRADSVAWNPHKLLAAGLQCSALLLQDTSNLLKRCHGSQASYLFQQDKFYDVALDTGDKVVQCGRRVDCLKLWLMWKAQGDQGLERRIDQAFVLARYLVEEMKKREGFELVMEPEFVNVCFWFVPPSLRGKQESPDYHERLSKVAPVLKERMVKEGSMMIGYQPHGTRGNFFRVVVANSALTCADMDFLLNELERLGQDL”, with “soluble”.

With “MMVMTDKFNYEELGLKVGLEIHRQLDTKKLFSPVPSELSDKVEFTFQRRLRPTMSELGEIDPAALEEFKKGRVYVYEGNYELTDLVYMDEEPPRGPDREALEVALQIAYLLNAKPVDEVYYMRKIVIDGSNVSGFQRTAIIATDGKVETPWGAVGIPTICLEEDAARIIERKDKEVIYRLDRLGIPLIEISTTPDIHHPEQAKVVAKFIGDALRATKKVKRGLGTIRQDLNVSIKGGARIEIKGVQELDMIPIIIEREVERQLNLLKIRDELRKRGVKPKDIKEEFYDVTDIFENTKSKIIARVIKKGGKVLAIKLPKFRGLIGREIQPGRRLGTEFADRAKKYVPGIFHIDELPNYGISQEEVNKVIERLNLSEEDAFVLVAAEEEKAKNALREVIKRAREAIEGVPEETRRALPDGNTEYMRPLPGKARMYPETDIPPLRIPDDLKKKIKENLPELPQAKVERYVKEYKLDRSLAQTLVDDERDELFEELVSMGVKPSLAASILVVVLKGLRKEVPIENVTDEHIREAFQLYLEGKIAKEAFEEIFKELARNPSKSAREVAEEKGLTLLSEEEVTRIIEEVIQQNIEVVKAKGMGAMGLIMGRVMAKVRGKADGKLVSQIVRRKLQEISGG”, the “soluble on expression in E. coli” value is recorded as “soluble”. The entry for “AIRVADLLQHITQMKCAEGYGFKEEYESFFEGQSAPWDSAKKDENRMKNRYGNIIAYDHSRVRLQTIEGDTNSDYINGNYIDGYHRPNHYIATQGPMQETIYDFWRMVWHENTASIIMVTNLVEVGRVKCCKYWPDDTEIYKDIKVTLIETELLAEYVIRTFAVEKRGVHEIREIRQFHFTGWPDHGVPYHATGLLGFVRQVKSKSPPSAGPLVVHCSAGAGRTGCFIVIDIMLDMAEREGVVDIYNCVRELRSRRVNMVQTEEQYVFIHDAILEACL” is “soluble”; for “PPHVEYMRRLELADYEPASDSGHIRYYPKGRLVKTLLEQFITRKCIDYGAMEVETPIMYDRNHPTLRRYLERFPARQYIIKGDKREFFLRFAACFGQFLMLSSSTITYRNLPLKIYELTRYSFRKEQRGELVGLRRLRAFTMPDMHTVAKDMEQAKEEFFNQYRLSVEVLREIGLEPEDYEVAVRITKDFYEENREFVHSLVDILKKPILIEMWDHRFFYFVLKFEFNFVDALDKASALSTVQIDVENAERYGITFVDSDGKEKHPYILHCSVSGAVERVMYALLEKAK” it is “not soluble”.

For the sequence “MKVIDLSQTFENNMSQFPGTPKIQLKAVTSVEESGYQVTDFHSVVHVGTHCDAPAHFISGATTIDQLPLDQFVGEAVLIDVTHIQERKLPKTVLHNTDIKEGDIVIFHSNLSTKWNTEAYEKEAFYLSEELAKELVRLKVKSIGLDFISPDEVTTETSPIHHILLGNDIYLIENLTNLDAIEEKRFFFSAAPLKIKNSDGAFARAFAVIFLEHHHHHH”, the “soluble on expression in E. coli” value is on record as “soluble”. In the case of “VGEVNLSARGNFTFARNEILEYDQVPQVYPWLEKKGTRLNSWKLYIADGLYTADDFNITGEGLNRQYELKPGVVSGLSSGVRPGDIKYKDLNGDGKIDSNDQMEDVGNPSVPEIVYGFGLNAEWKGAYVGIFFQGSGNTSTVLGASSNGAFFPFQWGVEESAVRSEVANRWTEQNPSQNVMFPRMHSTNYDNNTAASTWWLRNASFLRLKNIEVGYNFKEKTLKKIGIQALRVYLQGNNLCVWDDIKMWDPELGNTNGGFSYPLSRTFTFGLDFTF”, the “soluble on expression in E. coli” value is given as “not soluble”.

Turning to “DSRGCARWCPQDSSCVNATACRCNPGFSSFSEIITTPMETCDDINECATLSKVSCGKFSDCWNTEGSYDCVCSPGYEPVSGAKTFKNESENTCQDVDECSSGQHQCDSSTVCFNTVGSYSCRCRPGWKPRHGIPNNQKDTVCE”, the “soluble on expression in E. coli” value is reported as “soluble”. Then “MAGEGQIRLTDSCVQRLLEITEGSEFLRLQVEGGGCSGFQYKFSLDTVINPDDRVFEQGGARVVVDSDSLAFVKGAQVDFSQELIRSSFQVLNNPQAQQGCSCGSSFSIKL”, with “soluble”. The entry for “SAAGVPCALVTSCSSVFSGDQLVQHILGTEDLIVEVTSNDAVRFYPWTIDNKYYSADINLCVVPNKFLVTAEIAESVQAFVVYFDSTQKSGLDSVSSWLPLAKAWLPEVMILVCDRVSEDGINRQKAQEWCIKHGFELVELSPEELPEEDDDFPESTGVKRIVQALNANVWSNVVMKNDRNQGFSLLNSLTGTNHSIGSADPCHPEQPHLPAADSTESLSDHRGGASNTTDAQVDSIVDPMLDLDIQELASLTTGGGDVENFERLFSKLKEMKDKAATLPHEQRKVHAEKVAKAFWMAIGGDRDEIEGLSSDEEH” is “soluble”.

In the case of “MAHHHHHHMWSPSNKRDSLINSDDTFFPFLFHFPGSHPRQMLSSFFASRSRGSWIPAVDISEQDDGYILVADLPEVKKEDLRVYTESSSIICISGNRKHILKQDEHQLLVAERGAGRFERCFDLPTSVDSSKIKASFNDQQLNLSIPKLRNSKSGASNSVTID”, the “soluble on expression in E. coli” value is “soluble”. The entry for “MSLFGTSTTAPAASTTPLFGSTAAAAPKPGGLFGAPAAAMSSGLFGASQTAPAPASAGLFGSTTAPTPASTSSVPLFGSTTTTASPSGGLFGAKTATTAAPAPTGGLFGASTAAPATGSLFGSTAPATGGLFGAKSTTSAAPTLGGGLFGSSTAPAAAATTSFGAPPATAAAPLGLGGIQQQNSSGGGLPNASGTATSSLTGTGDSKDASKDGEWTQAATLIRDLLPLIEDKFKKNREFMEETENMSIDNVAIEEQIDKTRGWIEEVRRDVLTATQSSERIAYLVSTDKTLCDTTKRVQEHSGSANQTTYMNAIKEHLAELCNFYGNDMDALQERVNFLRNRFEKLLTGEKSITMEELDAYFLRCDANVSNAHHHVTELGKEIEEIRDFLIEQGYTQLRKWSTTAASAAAPIASNSEMIVREGAEFFPSQSSLAIIGSSLRAPAAPAPAVGGLGLGTGTSLFGNTGTTSLFGSTATKPAFSGGSLFGATTSTATSSAAATTTTPTTSLFGSTKPATTTTPFASTVANNSSGLLFSSKK” is “not soluble”. The entry for “AHHHHHHGSKVEKGDVIRLHYTGKVKETGEIFDTTYEDVAKEARIYNPNGIYGPVPIAVGAGHVLPGLDKRLIGLEVKKKYVIEVPPEEGFGLRDPGKIKIIPLGKFRKSGIIPYPGLEIEVETENGRKMRGRVLTVSGGRVRVDFNHPLAGKTLVYEVEVVEKIEDPIEKIKALIELRLPMIDKDKVIIEISEKDVKLNFKDVDIDPKTLILGEILLESDLKFIGYEKVEFEPTIEELLKPKSAEEQESPNEEQQEESESKAEES” is “not soluble”; for “MVKTMKCKFCDKKSYIKLKSPKMYLCKEHFVEYFENKVKKSIDKYKMLSKDEKILVAVSGGKDGHAAAWVLKKLGYNIELFHINLGIEGFSEESLKAVKELAEKLEVPLHVVNLKDITGKTMEDIRGKKCSICGTTKRYLMNKFGYENGFDVIVTGHNLDDEVSFILNNLFNWNIRYLAKHEPVLPAHDKFLKKVKIFFEIEEELILKYAEAEEIPYTTVECKYAERAITLKHRAYLNELEKERPGIKYQFLSGYMKNRHLFKVEEEDFQFRECEVCGMTSAGKICSFCRVWKLYKKKKENRN” it is “soluble”. The entry for “MIKLKTPNSMEIAEQPAVITYVPELNAFRGKFLGLSGYCDFVSDSIQGLQKEGELSLREYLEDCKAAGIEPYARTEKIKTFTLRYPESLSERLNNAAAQQQVSVNTYIIETLNERLNHL” is “not soluble”.
